From the RNAGym collection of RNA variant scans (doi:10.7554/elife.90254)

B1: LINE1-full (parent)
chain: UACGUAGGUGGUUUUCCCCUGAUAGUGCUAAGGGGGCCUGGAAGUUUGGACUGGGCAGAGCUCAACACAGCGUGGCAAAGUGGCUGUGGCUAGACUGCCUCUCUGGAUUCCUCGUCACUCAGCAGGGCAUCUCUGAGAGAAAUGCC

Variants of: B1
Test: self-cleavage, relative activity (ratio to wild type); higher = more cleavage; in vitro, sequencing; the parent is a self-cleaving ribozyme

| Variant | self-cleavage |
| --- | --- |
| UACGUAGGUGGUUUUCCCCUGAUAGUGCUAAGGGGGCCUGGAAGUUUGGACUGGGCAGAGCUCAACUCAGCGUGGCAAAGUGGCUGUGGCUAGACUGCCUCUCUGGAUUCCUCGUCACUCAGCAGGGCACCUCUGAGAGAAAUGCC | 0.15 |
| UACGUAGGUGGUUUUCCCCUGAUAGUGCCAUGGGGGCCUGGAAGUUUGGACUGGGCAGAGCUCAACACAGCGUGGCAAAGUGGCUGUGGCUAGACUGCCUCUCUGGAUUCCUCGUCACUCAGCAGGGCAUCUCUGAGAGAAAUGCC | 1 |
| UACGUAGGUGGUUUUCCCCUGAUAGUGCUAAGGGGGGCUGGAAGUUUGGACUGGGCAGAGCCCAACACAGCGUGGCAAAGUGGCUGUGGCUAGACUGCCUCUCUGGAUUCCUCGUCACUCAGCAGGGCAUCUCUGAGAGAAAUGCC | 0.12 |
| UACGUAGGUGGUUUUCCCCUGAUAGUGCUAAGGGGGCCUGGAAGUUUGGACUGGGCAGAGCUCAACACAGCGUGGCAAAGUGGCUGUGGCUAGACUGCCUCUCUGGAUGCCCCGUCACUCAGCAGGGCAUCUCUGAGAGAAAUGCC | 0.19 |
| UACGUAGGUGGUUUUCCACUGAUAGUGCUAAGGGGGCCUGGAAGUUUGGACUGGGCAGAGCUCAACACAGCGUGGCAAAGUGGCUGUGGCUAGACCGCCUCUCUGGAUUCCUCGUCACUCAGCAGGGCAUCUCUGAGAGAAAUGCC | 0.22 |
| UACGUAGGUGGUUUUCCCCUGAUAGUGCUAAGGGGGCCUGGAAGUUUGUACUGGGCAGAGCUCAACACAGCGUGGCAAAGCGGCUGUGGCUAGACUGCCUCUCUGGAUUCCUCGUCACUCAGCAGGGCAUCUCUGAGAGAAAUGCC | 1.54 |
| UACGUAGGUGGUUUUACCCUGAUAGUGCUAAGGGGGCCUGGAAGUUUGGACUGGGCAGAGCUCAACACAGCGUGGCAAAGUGGCUGUGGCUAGACUGCCUCUCUGGAUUCCUCGUCACUCAGCAGGGCAUCUCUGAGAGAAAUGCC | 0.96 |
| UACGUAGGUGGUUUUCCCCUGAUAGUGCUAAGGGGGCCUGGAAGUUUGGACUGGGCAGAGCUCAACACAGCGUGGCAAAGUGGCUGUGGCUAAACUGCCUCUCUGGAUUCCUCGUCACUCAGCAGGGCAUCUCUGAGAGGAAUGCC | 0.06 |
| UACGUAGGUGGUUUUCCCCUGAUAGUGCUAAGGGGGCCUGGAAUUUUGGACUGGGCAGAGCUCAACACAGCGUGGCAAAGUGGCUGUGGCUAGACUGCCUCUCUGGAUUCCUCGUCACUCAGCAGGGCAUCUCUGAGAGAAAUGCC | 1.56 |
| UACGUAGGUGGUUUUCCCCUGAUAGUGCUAAGGGGGCCUGGAAGUUUGGACUGGGCAGAGCUCAACACAGCGUGGCAAAGUGGCUGUGGCUAGACUGCCUCUCUGGAUUCCCCGUCACUCAGCAGGGCACCUCUGAGAGAAAUGCC | 1.61 |
| UACGUAGGUGGUUUUCCCCUGAUAGUGCUAAGGGGGCCUGGAUGUUUGGACUGGGCAGAGCUCAACACAGCGUGGCAAAGUGGCUGUGGCUAGACUGCCUCUCUGGAUUCCUCGUCACUCAGCAGGGCAUCCCUGAGAGAAAUGCC | 1.26 |
| UACGUAGGUGGUUUUCCCCCGAUAGUGCUAAGGGGGCAUGGAAGUUUGGACUGGGCAGAGCUCAACACAGCGUGGCAAAGUGGCUGUGGCUAGACUGCCUCUCUGGAUUCCUCGUCACUCAGCAGGGCAUCUCUGAGAGAAAUGCC | 1.11 |
| UACGUAGGCGGUUUUCCCCUGAUAGUGCUAAGGGGGCCUGGAAGUUUGGACUAGGCAGAGCUCAACACAGCGUGGCAAAGUGGCUGUGGCUAGACUGCCUCUCUGGAUUCCUCGUCACUCAGCAGGGCAUCUCUGAGAGAAAUGCC | 1.2 |
| UACGUAGGUGGUUUUCCCCUGAUAGUGCUAAGGGGGCCUGGAAGUUUGGACUGGGCAGGGCUCAACACAGCGUGGCAAAGUGGCUUUGGCUAGACUGCCUCUCUGGAUUCCUCGUCACUCAGCAGGGCAUCUCUGAGAGAAAUGCC | 0.03 |
| UACGUAGGUGGUUUUCCCCUGAUAGUGCUAAGGGGGCCAGGAAGUUUGGACUGGGCAGAGCUCAACACAGCGUGGCAAAGUGGCUGUGGCUAGACUGCCUCUCUGAAUUCCUCGUCACUCAGCAGGGCAUCUCUGAGAGAAAUGCC | 1.35 |
| UACGUAGGUGGUUUUCCCCCGAUAGUGCUAAGGGGGCCUGGAAGUUUGGACUGGGCAGAGCUCAACACAGCGUGGCAAAGUGGCUGUGGCUAGACUGCCUCUCUGGAUUCCUCGUCACUCAGCAGGGCAUCUCUGAGAGGAAUGCC | 1.35 |
| UACGUAGGUGGUUUUCCCCUGAUAGUGCUAAGGGGGCCUGGAAGUUUGGACUGGGCAGAGCUCAACUCAGCGUGGCAAAGUGGCUGUGGCUAGACUGCCUCUCUGGAUUCCCCGUCACUCAGCAGGGCAUCUCUGAGAGAAAUGCC | 0.09 |
| UACGUAGGUGGUUUUCCCCUGAUAGUGCUAAGGGGGCCUGGAAGUUUGGACUGGGCAGAGCUCAACACAGCGUGGCAAAGUGGCUGUCGCUAGACUGCCUCUCUAGAUUCCUCGUCACUCAGCAGGGCAUCUCUGAGAGAAAUGCC | 0.06 |
| UACGUAGGCGGUUUUCCCCUGAUAGUGCUAAGGGGGCCUGGAAGUUUGGUCUGGGCAGAGCUCAACACAGCGUGGCAAAGUGGCUGUGGCUAGACUGCCUCUCUGGAUUCCUCGUCACUCAGCAGGGCAUCUCUGAGAGAAAUGCC | 1.38 |
| UACGUAGGUGGUUUUCCCCUGAUAGUGCUAAGGGGGCCUGGAAGUUUGGACUGGGCAGGGCUCAACACAGCGUGGCAAAGUGGCUGUGGCUAGACUGCCUCUCUGGAUUCCUCGUCACUCCGCAGGGCAUCUCUGAGAGAAAUGCC | 0.09 |

| Variant | self-cleavage |
| --- | --- |
| UACGUUGGUGGCUUUCCCCUGAUAGUGCUAAGGGGGCCUGGAAGUUUGGACUGGGCAGAGCUCAACACAGCGUGGCAAAGUGGCUGUGGCUAGACUGCCUCUCUGGAUUCCUCGUCACUCAGCAGGGCAUCUCUGAGAGAAAUGCC | 1.43 |
| UACGUAGGUGGUUUUCCCCUGAUAGUGCUAAGGGGGCCUGGAAGGUUGGACUGGGCAGAGCUCAACACAGCGUGGCAAAGUGGCUGUGGCUAGACUGCCUCUCUGGAUUCCCCGUCACUCAGCAGGGCAUCUCUGAGAGAAAUGCC | 1.38 |
| UACGUAGGUGGUUUUCCCCUGAUAGUGCUAAGGGGGCCUGGAAGUUUGGAAUGGGCAGAGCUCAACACAGCGUGGCAAAGUGGCUGUGGCUAGACUGCCUCUCUGGAUUCCUCGUCACUCAGCAGGGCAUCUCUGAGAGGAAUGCC | 1.04 |
| UACGUAGGUGGUUUUCCCCUGAUAGUGCUAAGGGGGCCUGGAAGUUUGGACUGGGCAGAGCUCAACACAGCGUGGCAAAGUGGCUGUGCCUAGACUGCCUCUCUGGAUUCCUCGUCACUCAGCAGGGCAUCUCUGAGAGAAAUGCC | 0.04 |
| UACGUAGGUGGUUUUCCCCCGAUAGUGCUAAGGGGGCCUGGAAGUUUGGACUGGGCAGAGCUCAACACAGCGUGGCAAAGUGGCUGUGGCUAGACUGCCUCUCUGGAUUCCUCGUCACUCAGCAGUGCAUCUCUGAGAGAAAUGCC | 1.92 |
| UACGUAGGUGGUUUACCCCUGAUAGUGCUAAGGGGGCCUGGAAGUUUGGACUGGGCAGAGCUCAACACAGCGUGGCAAAGUGGUUGUGGCUAGACUGCCUCUCUGGAUUCCUCGUCACUCAGCAGGGCAUCUCUGAGAGAAAUGCC | 0.08 |
| AACGUAGGUGGUUUUCCCCUGAUAGUGCUAAGGGGGCCUGGAAGUUUGGACUGGGCAGAGCUCAACACAGCGUGGCAAAGUGGCUGUGGCUAGACUGCCUCACUGGAUUCCUCGUCACUCAGCAGGGCAUCUCUGAGAGAAAUGCC | 0.48 |
| UACGUAGGUGGUGUUCCCCUGAUAGUGCUAAGGGGGCCUGGAAGUUUGGACUGGGCAGAGCUCAACACAGCGUGGCAAAGUGGCUGUGGCUAGACUGCCUCCCUGGAUUCCUCGUCACUCAGCAGGGCAUCUCUGAGAGAAAUGCC | 0.66 |
| UACGUAGGUGGUUUUCCCCUGAUAGUGCUAAGGGGGCCUGGAAGUUUGGACUGGGCAGAGCUCAACACAGCGUGGCAAAGUGGCUGUGGCUAGACUGCCCCUCUGGAUUCCUCGUCACUCAGCAGGGCAUUUCUGAGAGAAAUGCC | 2.27 |
| UACGUAGGUGGUUUUCCCCUGAUAGUGCUAAGGGGGCCUGGAAGUAUGGACUGGGCAGAGCUCAACACAGCGUGGCAAAGUGGCUGUGGCUAGACUGCCUCUCUGGAUUCCACGUCACUCAGCAGGGCAUCUCUGAGAGAAAUGCC | 1.37 |
| UACGUAGGAGGUUUUCCCCCGAUAGUGCUAAGGGGGCCUGGAAGUUUGGACUGGGCAGAGCUCAACACAGCGUGGCAAAGUGGCUGUGGCUAGACUGCCUCUCUGGAUUCCUCGUCACUCAGCAGGGCAUCUCUGAGAGAAAUGCC | 0.88 |
| UACGUAGGUGGUUUUCCCCUGAUAGUGCUAAGGGGGCCUGGAAGUAUGGACUGGGCAGAGCUCAACACAGCGUGGCAAAGUGGCUGUGGCUAGACUGCCUCUCUGGAUUCCUCGCCACUCAGCAGGGCAUCUCUGAGAGAAAUGCC | 1.72 |
| UACGUAGGUGGUUUUCCCCUGAUAGUGCUAAGGGGGCCUGGAAGUUUGGACUGGGCAGAGCUCAGCACAGCGUGGCAAAGUGGCUGUGGGUAGACUGCCUCUCUGGAUUCCUCGUCACUCAGCAGGGCAUCUCUGAGAGAAAUGCC | 0.09 |
| UACGUAGGUGGUUUUCCCCUGAUAGUGCUAAGGGGGCCUGGAAGUUUGGACUGGGCAGAGCUCAACACGGCGUGGCGAAGUGGCUGUGGCUAGACUGCCUCUCUGGAUUCCUCGUCACUCAGCAGGGCAUCUCUGAGAGAAAUGCC | 0.6 |
| UACGUAGGUGGUGUUCCCCAGAUAGUGCUAAGGGGGCCUGGAAGUUUGGACUGGGCAGAGCUCAACACAGCGUGGCAAAGUGGCUGUGGCUAGACUGCCUCUCUGGAUUCCUCGUCACUCAGCAGGGCAUCUCUGAGAGAAAUGCC | 0.69 |
| UACGUAGGUGGUUUUCCCCUGAUAGCGCUAAGGGGGCCUGGAAGUUUGGACUGGGCAGAGCUCAACACAGCGUGGCGAAGUGGCUGUGGCUAGACUGCCUCUCUGGAUUCCUCGUCACUCAGCAGGGCAUCUCUGAGAGAAAUGCC | 1.93 |
| UACGUAGGUGGUUUUCCCCUGAUAGUGCUAAGGGGGCCUGGAAAUAUGGACUGGGCAGAGCUCAACACAGCGUGGCAAAGUGGCUGUGGCUAGACUGCCUCUCUGGAUUCCUCGUCACUCAGCAGGGCAUCUCUGAGAGAAAUGCC | 0.79 |
| UACGUAGGUGGUUUUCCCCUGAUAGUGCUAAGGGGGCCUGGAAGUUUGGACUGGGCAGAGCUCAACACAGCGUGGCAAAGUGGCUGUGGCUAGACUGCCUCUCUGGAUUACUCGUCACUCAACAGGGCAUCUCUGAGAGAAAUGCC | 0.9 |
| UACUCAGGUGGUUUUCCCCUGAUAGUGCUAAGGGGGCCUGGAAGUUUGGACUGGGCAGAGCUCAACACAGCGUGGCAAAGUGGCUGUGGCUAGACUGCCUCUCUGGAUUCCUCGUCACUCAGCAGGGCAUCUCUGAGAGAAAUGCC | 0.79 |
